In US20220411487A1 (Regeneron, published 2022):

T1: full-length mouse TMPRSS6 with a C-terminal triple myc tag on HEK293.hHJV cells (HEK293.hHJV/3xMyc.mTMPRSS6) (mouse, UniProt Q9DBI0 1-811)
T1 sequence: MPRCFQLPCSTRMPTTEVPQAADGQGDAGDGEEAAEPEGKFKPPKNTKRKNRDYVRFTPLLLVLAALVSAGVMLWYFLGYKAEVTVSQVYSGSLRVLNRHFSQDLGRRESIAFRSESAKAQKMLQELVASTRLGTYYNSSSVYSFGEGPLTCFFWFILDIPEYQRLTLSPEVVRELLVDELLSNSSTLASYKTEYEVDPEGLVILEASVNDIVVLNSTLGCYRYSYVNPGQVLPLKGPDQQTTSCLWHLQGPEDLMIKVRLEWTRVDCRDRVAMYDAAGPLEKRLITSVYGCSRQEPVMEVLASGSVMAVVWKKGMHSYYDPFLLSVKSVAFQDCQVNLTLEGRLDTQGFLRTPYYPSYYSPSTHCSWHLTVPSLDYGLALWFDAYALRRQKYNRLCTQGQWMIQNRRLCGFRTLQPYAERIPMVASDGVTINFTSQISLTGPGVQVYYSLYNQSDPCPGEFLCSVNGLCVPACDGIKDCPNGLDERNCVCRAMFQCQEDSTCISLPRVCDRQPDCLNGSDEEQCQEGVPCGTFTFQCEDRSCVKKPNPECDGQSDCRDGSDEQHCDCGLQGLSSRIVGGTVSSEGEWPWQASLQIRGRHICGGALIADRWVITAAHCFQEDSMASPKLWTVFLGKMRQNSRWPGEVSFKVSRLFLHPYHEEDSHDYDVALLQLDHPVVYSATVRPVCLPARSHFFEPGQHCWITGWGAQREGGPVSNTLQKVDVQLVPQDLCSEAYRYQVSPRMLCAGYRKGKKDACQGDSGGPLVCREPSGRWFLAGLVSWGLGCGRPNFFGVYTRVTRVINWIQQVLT

T2: full length human TMPRSS6 with a C-terminal triple myc tag on HEK293.hHJV cells (HEK293.hHJV/3xMyc.hTMPRSS6) (human, UniProt Q8IU80 1-811)
T2 sequence: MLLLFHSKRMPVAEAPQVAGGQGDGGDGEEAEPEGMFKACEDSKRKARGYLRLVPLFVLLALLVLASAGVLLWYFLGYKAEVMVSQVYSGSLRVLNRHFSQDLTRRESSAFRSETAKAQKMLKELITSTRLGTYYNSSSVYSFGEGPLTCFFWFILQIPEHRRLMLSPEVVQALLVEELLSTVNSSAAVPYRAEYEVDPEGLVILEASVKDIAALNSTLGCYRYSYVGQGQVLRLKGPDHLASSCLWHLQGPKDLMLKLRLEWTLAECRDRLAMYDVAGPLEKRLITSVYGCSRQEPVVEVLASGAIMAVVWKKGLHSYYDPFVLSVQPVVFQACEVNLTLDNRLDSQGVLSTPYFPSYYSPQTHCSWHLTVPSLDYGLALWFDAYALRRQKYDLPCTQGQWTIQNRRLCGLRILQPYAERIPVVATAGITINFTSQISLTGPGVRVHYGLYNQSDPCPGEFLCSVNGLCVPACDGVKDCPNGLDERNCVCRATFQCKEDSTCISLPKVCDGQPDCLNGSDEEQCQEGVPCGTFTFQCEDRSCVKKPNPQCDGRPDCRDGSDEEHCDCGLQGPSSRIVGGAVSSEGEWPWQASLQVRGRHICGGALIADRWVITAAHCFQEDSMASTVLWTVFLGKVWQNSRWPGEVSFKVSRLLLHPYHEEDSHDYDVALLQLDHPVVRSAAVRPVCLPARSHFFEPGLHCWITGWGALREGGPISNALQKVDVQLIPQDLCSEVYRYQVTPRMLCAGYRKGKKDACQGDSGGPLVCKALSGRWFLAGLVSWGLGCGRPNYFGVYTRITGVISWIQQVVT

T3: full length mouse TMPRSS6 on HEK293 cells (HEK293/mTMPRSS6) (mouse, UniProt Q9DBI0 1-811)
T3 construct: line sorted for high expression
T3 sequence: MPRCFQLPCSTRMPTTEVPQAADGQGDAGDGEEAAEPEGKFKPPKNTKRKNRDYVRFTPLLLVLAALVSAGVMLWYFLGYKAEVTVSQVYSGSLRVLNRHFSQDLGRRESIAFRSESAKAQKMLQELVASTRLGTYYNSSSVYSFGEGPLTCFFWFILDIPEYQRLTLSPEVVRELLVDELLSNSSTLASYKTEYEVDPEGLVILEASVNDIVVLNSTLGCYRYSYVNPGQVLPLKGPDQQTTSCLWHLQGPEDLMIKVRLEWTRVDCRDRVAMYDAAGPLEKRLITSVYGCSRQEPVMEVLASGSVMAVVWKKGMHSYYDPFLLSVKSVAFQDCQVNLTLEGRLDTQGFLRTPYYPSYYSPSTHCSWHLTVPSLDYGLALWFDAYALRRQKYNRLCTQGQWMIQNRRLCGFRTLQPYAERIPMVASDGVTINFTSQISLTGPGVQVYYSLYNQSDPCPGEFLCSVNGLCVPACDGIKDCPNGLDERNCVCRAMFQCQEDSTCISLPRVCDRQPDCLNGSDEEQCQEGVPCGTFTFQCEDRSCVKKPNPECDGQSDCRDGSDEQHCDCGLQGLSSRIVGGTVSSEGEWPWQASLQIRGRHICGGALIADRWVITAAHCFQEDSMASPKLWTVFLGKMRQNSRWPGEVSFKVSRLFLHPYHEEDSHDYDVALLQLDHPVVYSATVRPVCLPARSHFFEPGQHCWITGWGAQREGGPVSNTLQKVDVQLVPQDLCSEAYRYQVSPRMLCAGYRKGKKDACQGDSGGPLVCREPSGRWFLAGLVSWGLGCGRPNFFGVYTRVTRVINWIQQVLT

T4: full length cynomolgous monkey TMPRSS6 on HEK293 cells (HEK293/mfTMPRSS6) (cynomolgous monkey/Macaca fascicularis, UniProt Q8IU80 10-811 (human entry))
T4 chain: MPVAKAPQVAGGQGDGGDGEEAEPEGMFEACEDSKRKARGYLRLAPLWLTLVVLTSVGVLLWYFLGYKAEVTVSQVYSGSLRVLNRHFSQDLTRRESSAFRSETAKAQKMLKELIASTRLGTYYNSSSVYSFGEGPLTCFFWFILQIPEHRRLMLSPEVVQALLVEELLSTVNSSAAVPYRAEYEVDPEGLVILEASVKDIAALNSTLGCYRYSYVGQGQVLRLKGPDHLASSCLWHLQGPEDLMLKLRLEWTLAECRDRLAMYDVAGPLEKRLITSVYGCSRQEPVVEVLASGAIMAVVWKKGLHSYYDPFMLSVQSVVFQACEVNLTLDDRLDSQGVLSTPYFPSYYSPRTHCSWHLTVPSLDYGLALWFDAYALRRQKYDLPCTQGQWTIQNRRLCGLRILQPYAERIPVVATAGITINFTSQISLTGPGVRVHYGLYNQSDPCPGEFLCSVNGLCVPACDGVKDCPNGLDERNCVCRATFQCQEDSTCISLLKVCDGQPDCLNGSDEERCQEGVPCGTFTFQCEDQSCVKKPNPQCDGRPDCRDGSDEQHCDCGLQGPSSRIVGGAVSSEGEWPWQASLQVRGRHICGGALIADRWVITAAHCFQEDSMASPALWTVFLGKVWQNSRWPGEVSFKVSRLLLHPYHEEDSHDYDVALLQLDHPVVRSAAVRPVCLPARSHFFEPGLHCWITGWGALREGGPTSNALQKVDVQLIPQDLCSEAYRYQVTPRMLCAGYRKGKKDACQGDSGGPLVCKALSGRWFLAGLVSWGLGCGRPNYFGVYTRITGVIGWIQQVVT

B1: REGN7969 (antibody, human IgG4 S228P, kappa, V domains shown)
VH: QVQLVESGGGVVQPGRSLRLSCAASGFTFNNYGMHWVRQAPGKGLEWVAIISYDGSNEYYSDSVKGRFTISRDNSKNTLYLQMNSLRAEDTAVYYCARDQDYGGNLFHYWGQGTLVTVSS
VL: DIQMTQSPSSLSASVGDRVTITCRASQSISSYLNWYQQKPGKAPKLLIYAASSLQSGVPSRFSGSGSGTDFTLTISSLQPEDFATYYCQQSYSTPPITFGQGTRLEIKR
notes: fully human; human IgG4 Fc with hinge S108P; also called mAb37746
B2: REGN7971 (antibody, human IgG4 S228P, kappa, V domains shown)
VH: QVQLVESGGGVVQPGRSLRLSCAASGFTFSTYGMHWVRQAPGKGLEWVAIISYDGSNDYYLDSVKGRFTISRDNSKNTLYLQMNNLRAEDTAVYYCAKDQGYGGNLFASWGQGTLVTVSS
VL: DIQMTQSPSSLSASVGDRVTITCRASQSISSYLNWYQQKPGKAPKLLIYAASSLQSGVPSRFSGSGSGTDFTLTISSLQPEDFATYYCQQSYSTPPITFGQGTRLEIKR
notes: fully human; human IgG4 Fc with hinge S108P; also called mAb37763
B3: REGN7974 (antibody, human IgG4 S228P, kappa, V domains shown)
VH: EVQLVESGGGLVQPGRSLRLSCIASGFNFGDYGMSWVRQAPGKGLEWVGFIRSKAYGGTTEYAASVKGRFTISRDDSKSIAYLQMNSLKTEDAAMYYCSRDYYDILTGYYGDYWGQGTLVTVSS
VL: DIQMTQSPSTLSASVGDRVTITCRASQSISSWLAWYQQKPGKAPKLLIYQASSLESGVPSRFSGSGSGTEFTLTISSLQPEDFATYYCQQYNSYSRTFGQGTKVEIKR
notes: fully human; human IgG4 Fc with hinge S108P; also called mAb41422
B4: REGN7977 (antibody, V domains shown)
VH: EVQLVESGGGLVKPGGSLRVSCAASGVTFSNVWMSWVRQVPGKGLEWVGRIKSKTDGGTTDYAAPVKGRFTISKDDSKNTLFLQMNSLKTEDTAVYYCTTETGDFWSGYYPRFQHWGQGTLVTVSS
VL: DIQMTQSPSSLSASVGDRVTITCRASQYISTYLNWYQQKPGKAPSLLIYAASSLQSGVPSRFSGSGSGTDFTLTISSLQPEDFASYSCQQSYSTPPYTFGQGTKLEIKR
notes: fully human; human IgG4 Fc with hinge S108P; also called mAb41465
B5: REGN7999 (antibody, human IgG4 S228P, kappa, V domains shown)
VH: EVQLVESGGGLVQPGGSLRLSCAASGFTFSSYAMTWVRQAPGKGLEWVSAISGSDTSTYYADSVKGRFTISRDNSKNTLFLQMNSLRAEDTAVYYCAKHQDYDFSYYYSAMDVWGQGTTVTVSS
VL: DIQMTQSPSSLSASVGDRVIITCRASQDFNSWLAWYQQKPGKAPKLLIYAASSLQSGVPSRFSGSGSGTDFTLTISSLQPEDFATYYCQQTDSFPFTFGPGTKVDIKR
notes: fully human; human IgG4 Fc with hinge S108P; also called mAb41450
B6: REGN8023 (antibody, human IgG4 S228P, kappa, V domains shown)
VH: EVQLVESGGGLVKPGGSLRISCAASGFIFVDYAMHWVRQAPGKGLEWVSGISWNSGSIGYADSVKGRFTISRDNAKKSLYLQMSGLRPEDTALYYCVKSGFYYVRSYFDNWGQGTLVTVSS
VL: DIVMTQSPLSLPVTPGEPASISCRSSQSLLDSDDGNTYLDWYLRKPGQSPQLLIYTLSYRASGVPDRFSGSGSGTDFTLKISRVEADDVGVYYCMQRIEFPLTFGGGTKVEIKR
notes: fully human; human IgG4 Fc with hinge S108P; also called mAb37699

How the values were obtained:
[1] = target: T1, full-length mouse TMPRSS6 with a …; test: cell-based or functional assay
[2] = target: T2, full length human TMPRSS6 with a …; test: cell-based or functional assay
[3] = target: T3, full length mouse TMPRSS6 on HEK293 …; test: flow cytometry, HEK293/mTMPRSS6 cells
[4] = target: T4, full length cynomolgous monkey TMPRSS6 …; test: cell-based or functional assay

| Inhibition (%) of soluble hHJV release (ELISA) [1] [%] | IC50, soluble hHJV release (ELISA) [2] [nM] | Inhibition (%) of soluble hHJV release (ELISA) [2] [%] | binding result [3] | % inhibition, HEK293 bioassay, 30 min pre-incubation 25 C [4] [%] | IC50, HEK293 bioassay, 30 min pre-incubation 25 C [4] [nM] | IC50, soluble hHJV release (ELISA) [1] [nM] | Binder |
| --- | --- | --- | --- | --- | --- | --- | --- |
| < 1 | 0.0712 | > 99 | no binding (tested: 375 nM) | 87 | 8.8 | – | B1 |
| 10.2 | 0.0774 | 89.9 | no binding (tested: 375 nM) | 87 | 3.1 | – | B2 |
| 11.8 | 0.154 | > 99 | no binding (tested: 375 nM) | 81 | 30 | – | B3 |
| 46.4 | 0.127 | > 99 | – | 87 | 8.1 | – | B4 |
| 98.5 | 0.102 | > 99 | – | 90 | 6.5 | 0.0826 | B5 |
| 42 | 0.149 | > 99 | – | 94 | 0.66 | 0.274 | B6 |
